According to patent US20210052695A1 (CAMBRIDGE ENTERPRISE, published 2021):
Ends that are not written are not given here. * marks the point of attachment. TAMRA = 5-carboxytetramethylrhodamine, CN(C)c1ccc2c(-c3ccc(C(=O)*)cc3C(=O)[O-])c3ccc(N(C)C)cc3[o+]c2c1

What was measured:
[1] = biological target: T1, HLA-A*68:02 expressed on the cell surface (HeLaM cells, or HeLaM-HLA-ABC^KO cells reconstituted with … (human)); experiment: flow cytometry, time course with 10 nM fluorescent peptide (FIG. 1e)
T1 construct: whole, on cells; Carries the cells' own, unnamed peptides before exchange; also called HLA-A*A68:02

[2] = biological target: T1, HLA-A*68:02 expressed on the cell …; experiment: flow cytometry of fluorescent peptide on transduced HeLaM-TAPBPR^KO cells
[3] = biological target: T1, HLA-A*68:02 expressed on the cell …; experiment: flow cytometry, dose response of fluorescent peptide on HeLaM cell lines (FIG. 1d)
[4] = biological target: T1, HLA-A*68:02 expressed on the cell …; experiment: cell-based peptide exchange on HeLa^KOTAPBPR^WT cells, displacement of fluorescent peptide, flow cytometry
[5] = biological target: T1, HLA-A*68:02 expressed on the cell …; experiment: flow cytometry with PeTe-4 on HeLaM, HeLaM-HLA-ABC^KO and HLA-A*68:02 reconstituted cells, 100 nM protein, 15 min at 37° C.
[6] = biological target: T1, HLA-A*68:02 expressed on the cell …; experiment: flow cytometry of fluorescent peptide on IFN-γ treated HeLaM cell lines, 15 min at 37° C.
[7] = biological target: T1, HLA-A*68:02 expressed on the cell …; experiment: cell-based peptide exchange: no dissociation of fluorescent peptide from HLA-A*68:02 on HeLa^KOTAPBPR^WT cells
[8] = biological target: T2, UDP-glucose:glycoprotein glucosyltransferase 1 (UGT1) (UniProt Q9NYU2 43-1555); experiment: immunoprecipitation of the intracellular TAPBPR pool, Western blot for UGT1
T2 construct: Detected by Western blot in TAPBPR immunoprecipitates
T2 sequence (Q9NYU2 43-1555 limits assumed): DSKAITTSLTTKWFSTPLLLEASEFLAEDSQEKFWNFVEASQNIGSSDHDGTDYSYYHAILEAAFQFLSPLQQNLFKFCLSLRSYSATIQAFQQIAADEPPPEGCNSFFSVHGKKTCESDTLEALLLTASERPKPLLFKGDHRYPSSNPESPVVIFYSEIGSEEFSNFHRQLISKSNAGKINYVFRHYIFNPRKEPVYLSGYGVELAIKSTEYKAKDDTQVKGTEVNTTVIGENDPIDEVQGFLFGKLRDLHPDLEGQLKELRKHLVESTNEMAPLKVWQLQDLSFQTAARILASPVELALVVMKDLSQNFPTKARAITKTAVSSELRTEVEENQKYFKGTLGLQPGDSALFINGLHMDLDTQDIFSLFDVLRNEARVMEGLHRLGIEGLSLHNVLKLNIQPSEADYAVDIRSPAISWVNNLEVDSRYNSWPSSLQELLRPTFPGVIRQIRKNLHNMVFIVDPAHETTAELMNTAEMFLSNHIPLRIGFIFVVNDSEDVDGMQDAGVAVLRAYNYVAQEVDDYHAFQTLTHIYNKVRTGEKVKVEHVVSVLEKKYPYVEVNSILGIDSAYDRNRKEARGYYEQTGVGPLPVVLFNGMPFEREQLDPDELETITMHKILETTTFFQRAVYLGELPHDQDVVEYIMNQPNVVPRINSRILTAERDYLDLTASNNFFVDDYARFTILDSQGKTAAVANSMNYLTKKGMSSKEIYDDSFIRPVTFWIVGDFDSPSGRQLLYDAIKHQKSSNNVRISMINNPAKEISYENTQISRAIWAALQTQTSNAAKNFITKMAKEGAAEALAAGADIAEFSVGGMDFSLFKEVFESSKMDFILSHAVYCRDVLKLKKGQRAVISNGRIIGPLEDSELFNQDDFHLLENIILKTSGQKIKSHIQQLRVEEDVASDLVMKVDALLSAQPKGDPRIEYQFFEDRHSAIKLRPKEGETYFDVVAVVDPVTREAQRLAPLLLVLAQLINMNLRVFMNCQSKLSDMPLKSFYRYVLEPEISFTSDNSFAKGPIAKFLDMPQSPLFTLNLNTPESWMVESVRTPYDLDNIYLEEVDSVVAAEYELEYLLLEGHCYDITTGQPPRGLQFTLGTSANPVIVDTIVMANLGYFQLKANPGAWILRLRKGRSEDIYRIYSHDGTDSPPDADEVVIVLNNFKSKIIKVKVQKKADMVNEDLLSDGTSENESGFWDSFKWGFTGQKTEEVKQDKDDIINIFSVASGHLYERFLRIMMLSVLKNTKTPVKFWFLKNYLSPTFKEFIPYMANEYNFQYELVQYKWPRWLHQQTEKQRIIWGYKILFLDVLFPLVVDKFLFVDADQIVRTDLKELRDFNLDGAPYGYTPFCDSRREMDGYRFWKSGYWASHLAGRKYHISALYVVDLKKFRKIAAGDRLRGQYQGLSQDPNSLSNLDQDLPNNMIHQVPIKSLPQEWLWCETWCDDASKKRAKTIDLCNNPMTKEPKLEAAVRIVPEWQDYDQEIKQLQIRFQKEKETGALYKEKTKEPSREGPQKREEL

[9] = biological target: T1, HLA-A*68:02 expressed on the cell …; experiment: flow cytometry of TAPBPR on HeLaM cells without surface GFP

Q: Which results are given for ETVSK(TAMRA)QSNV [ETVSK*QSNV (fluorescent variant of the neoantigen …)]?
A: fold increase in fluorescent peptide bound to HeLaKO-TAPBPR^WT against the HeLaM and HeLaM^KO controls after 60 min [1]: 21 fold; fold less exogenous peptide binding on tapasin^PM cells than on TAPBPR^PM cells [2]: ~10 times; fold less efficient peptide binding to cells lacking surface TAPBPR than TAPBPR-promoted binding [3]: ~120 times

Q: Does ETVSEQSNV [ETVSEQSNV (unlabeled HLA-A*68:02-binding peptide)] bind [4]?
A: binds

Q: Does YVVPFVAKV [YVVPFVAKV (unlabeled peptide)] bind [4]?
A: binds

B1: soluble TAPBPR^WT (secreted luminal domain of human TAPBPR, C-terminally His-tagged) (other)
chain: KPHPAEGQWRAVDVVLDCFLVKDGAHRGALASSEDRARASLVLKQVPVLDDGSLEDFTDFQGGTLAQDDPPIIFEASVDLVQIPQAEALLHADCSGKEVTCEISRYFLQMTETTVKTAAWFMANVQVSGGGPSISLVMKTPRVAKNEVLWHPTLNLPLSPQGTVRTAVEFQVMTQTQSLSFLLGSSASLDCGFSMAPGLDLISVEWRLQHKGRGQLVYSWTAGQGQAVRKGATLEPAQLGMARDASLTLPGLTIQDEGTYICQITTSLYRAQQIIQLNIQASPKVRLSLANEALLPTLICDIAGYYPLDVVVTWTREELGGSPAQVSGASFSSLRQSVAGTYSISSSLTAEPGSAGATYTCQVTHISLEEPLGASTQVVPPERR
notes: Made in 293T cells with the PiggyBac system and purified on Ni Sepharose; also called sol WT; exogenous TAPBPR^WT; not shown: C-terminal His tag
Q: Does B1 bind [5]?
A: binds

Q: Does EGVSK(TAMRA)QSNG (also called ETVΔ2/9) [EGVSK*QSNG (fluorescent non-binding variant with the anchor residues mutated)] bind [6]?
A: no binding (tested: 10 nM)

Q: Does EGVSEQSNG (also called ETVΔ2/9) bind [7]?
A: no binding

B2: full-length TAPBPR^WT over-expressed in HeLaM-TAPBPR^KO cells (other)
chain: KPHPAEGQWRAVDVVLDCFLVKDGAHRGALASSEDRARASLVLKQVPVLDDGSLEDFTDFQGGTLAQDDPPIIFEASVDLVQIPQAEALLHADCSGKEVTCEISRYFLQMTETTVKTAAWFMANVQVSGGGPSISLVMKTPRVAKNEVLWHPTLNLPLSPQGTVRTAVEFQVMTQTQSLSFLLGSSASLDCGFSMAPGLDLISVEWRLQHKGRGQLVYSWTAGQGQAVRKGATLEPAQLGMARDASLTLPGLTIQDEGTYICQITTSLYRAQQIIQLNIQASPKVRLSLANEALLPTLICDIAGYYPLDVVVTWTREELGGSPAQVSGASFSSLRQSVAGTYSISSSLTAEPGSAGATYTCQVTHISLEEPLGASTQVVPPERRTALGVIFASSLFLLALMFLGLQRRQAPTGLGLLQAERWETTSCADTQSSHLHEDRTARVSQPS
notes: V41_G151_V169 polymorphisms as used in the studies; also called surface TAPBPR; HeLa^KOTAPBPR^WT
Q: Does B2 bind [8]?
A: binds

B3: TAPBPR-GFPNB fusion protein (soluble TAPBPR fused to a nanobody specific for GFP, long linker) (other)
chain: KPHPAEGQWRAVDVVLDCFLVKDGAHRGALASSEDRARASLVLKQVPVLDDGSLEDFTDFQGGTLAQDDPPIIFEASVDLVQIPQAEALLHADCSGKEVTCEISRYFLQMTETTVKTAAWFMANVQVSGGGPSISLVMKTPRVAKNEVLWHPTLNLPLSPQGTVRTAVEFQVMTQTQSLSFLLGSSASLDCGFSMAPGLDLISVEWRLQHKGRGQLVYSWTAGQGQAVRKGATLEPAQLGMARDASLTLPGLTIQDEGTYICQITTSLYRAQQIIQLNIQASPKVRLSLANEALLPTLICDIAGYYPLDVVVTWTREELGGSPAQVSGASFSSLRQSVAGTYSISSSLTAEPGSAGATYTCQVTHISLEEPLGASTQVVPPERRHVGGGGSGGGGSGGGGSTSQVQLVESGGALVQPGGSLRLSCAASGFPVNRYSMRWYRQAPGKEREWVAGMSSAGDRSSYEDSVKGRFTISRDDARNTVYLQMNSLKPEDTAVYYCNVNVGFEYWGQGTQVTVSSK
notes: 21 aa leader left out; also called sTAPBPR-linker-GFPNB; sTAPBPR-GFP sdAb
Q: Does B3 bind [9]?
A: no binding (tested: 100 nM)

Q: YVVPFVAK(TAMRA)V [YVVPFVAK*V (fluorescent variant of YVVPFVAKV)] was tested. Which “fold less exogenous peptide binding on tapasin^PM cells than on TAPBPR^PM cells” value [2] did it give?
A: ~10 times
